Results from publication PMC4200255.

Target: recombinant purified protein HSP70-1A (UniProt P0DMV8)
UniProt P0DMV8, sequence (P0DMV8 whole entry): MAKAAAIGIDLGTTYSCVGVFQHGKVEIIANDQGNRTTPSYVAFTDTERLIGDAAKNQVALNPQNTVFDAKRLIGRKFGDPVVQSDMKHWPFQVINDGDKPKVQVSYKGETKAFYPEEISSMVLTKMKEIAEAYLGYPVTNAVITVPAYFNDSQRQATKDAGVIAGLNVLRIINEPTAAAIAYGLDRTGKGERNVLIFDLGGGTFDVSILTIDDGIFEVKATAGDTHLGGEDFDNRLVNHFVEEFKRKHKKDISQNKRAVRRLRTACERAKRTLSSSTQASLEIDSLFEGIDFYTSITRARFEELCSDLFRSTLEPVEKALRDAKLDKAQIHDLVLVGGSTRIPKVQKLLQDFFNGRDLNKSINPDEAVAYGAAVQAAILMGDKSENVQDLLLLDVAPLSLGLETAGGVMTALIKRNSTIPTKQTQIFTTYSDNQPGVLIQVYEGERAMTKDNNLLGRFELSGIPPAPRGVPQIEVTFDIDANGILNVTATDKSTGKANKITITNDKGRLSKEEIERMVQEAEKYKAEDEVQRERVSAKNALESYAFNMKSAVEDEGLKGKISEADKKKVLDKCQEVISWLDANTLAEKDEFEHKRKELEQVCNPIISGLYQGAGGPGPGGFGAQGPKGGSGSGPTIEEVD

| Binder | stimulation of the ATPase activity of 0.7 μM HSP70 by 500 μM peptide (malachite green, 37 °C) |
| --- | --- |
| TPGTFKERIIKSITPETPTE [20-mer peptide of the serotonin transporter C terminus (lacks the first 4 amino acids RLII)] | 2 fold |
| RLIITPGTFKERIIKSITPETPTE [24-mer peptide of the serotonin transporter C terminus] | 4 fold |
